Test results published in patent US20240238445A1, “INHIBITORS AND USES THEREOF” (NEURACLE SCIENCE CO., LTD., priority 2021, published 2024).

Key:
[1] = biological target: binding of FAM19A5 protein to full-length ectodomain of the LRRC4B protein (amino acids 36-576 of SEQ ID NO: 2) (Homo sapiens, UniProt Q7Z5A7); assay: Competitive inhibition assay, plate coated with full-length ectodomain of LRRC4B (amino acids 36-576); details: Table 10; alanine/asparagine mutants
Procedure: Next, to further assess the role that the binding domain of the LRRC4B protein has on the interaction between FAM19A5 protein and members of the LRRC4 protein family, a competitive inhibition assay was used to determine whether different LRRC4B deletion constructs from Example 2 could inhibit the binding of FAM19A5 to the full-length ectodomain of the LRRC4B protein (i.e., amino acids 36-576 of SEQ ID NO: 2; SEQ ID NO: 5). Briefly, 100 nM of the full-length ectodomain of the LRRC4B protein was used to coat a plate, and then recombinant FAM19A5 protein (5 ng/mL) was added to the plate in combination with the following LRRC4B deletion constructs (increasing concentrations): (1) LRRC4B (453-576) (i.e., construct #11 in Table 6); (2) LRRC4B (453-576) mutant (comprises alanine substitutions at positions 488 and 489 of SEQ ID NO: 2; SEQ ID NO: 16); (3) LRRC4B (484-576) (i.e., construct #12 in Table 6); (4) LRRC4B (482-576); (5) LRRC4B (482-497); and (6) LRRC4B (498-576). The plates were incubated at 37° C., and then, the amount of FAM19A5 bound to the coated LRRC4B ectodomain protein was measured using HRP-conjugated anti-FAM19A5 (1-65) antibody.
As described in Example 3, there appeared to be much similarity in the binding domains of the different members of the LRRC4 family. […] Then, recombinant FAM19A5 protein (5 ng/mL) was added in combination with one of the following: (i) LRRC4B (484-576) protein fragment, (ii) LRRC4B (453-576, AA) protein fragment, and (iii) synthetic FB-20 peptide. The plates were incubated at 37° C., and then, the amount of FAM19A5 protein bound to the coated LRRC4, LRRC4B, or LRRC4C proteins was measured using anti-FAM19A5 (1-65) antibody.
(§1) Next, to assess whether polypeptides comprising the binding domains of LRRC4 or LRRC4C proteins can have similar inhibitory effects on LRRC4B protein binding, the following synthetic peptides were constructed: (1) FBC4-23 (contains the binding domain of the LRRC4 protein, i.e., YSFFTTVTVETTE); and (2) FBC4C-23 (contains the binding domain of the LRRC4C protein, i.e., FSYFSTVTVETME). Then, the ability of the peptides to inhibit the binding of LRRC4 protein family members to FAM19A5 protein was assessed using a competitive inhibition assay. Briefly, plates were coated with 100 nM of either LRRC4B protein fragment #1 (amino acids 36-576 of SEQ ID NO: 2; SEQ ID NO: 5) or LRRC4B protein fragment #2 (amino acids 453-576 of SEQ ID NO: 2; SEQ ID NO: 7). Then, recombinant FAM19A5 protein (5 ng/ml for plates coated with LRRC4B fragment #1; and 1 ng/mL for plates coated with LRRC4B fragment #2) was added to the plates in combination with 20 nM of the FBC4-23, FBC4C-23, and FB-20 peptides. The plates were incubated at 37° C. and then, the amount of FAM19A5 protein bound to the coated LRRC4B protein fragments was assessed using HRP-conjugated anti-FAM19A5 (1-65) antibody.
Next, to determine the minimal sequence required to inhibit the interaction of FAM19A5 and members of the LRRC4 protein family, ten FB-20 peptide variants were constructed by serially deleting one or more amino acids from the N-terminus or C-terminus of the FB-20 peptide. Then, a competitive inhibition assay was used to assess the ability of the different FB-20 peptide variants to inhibit the interaction between FAM19A5 and LRRC4B protein. Again, plates were coated with 100 nM of either LRRC4B protein fragment #1 (amino acids 36-576 of SEQ ID NO: 2; SEQ ID NO: 5) or LRRC4B protein fragment #2 (amino acids 453-576 of SEQ ID NO: 2; SEQ ID NO: 7). Then, recombinant FAM19A5 protein (5 ng/ml for plates coated with LRRC4B fragment #1; and 1 ng/mL for plates coated with LRRC4B fragment #2) was added to the plates in combination with 20 nM of the different peptides described above. After incubating the plates at 37° C., the amount of FAM19A5 protein bound to the coated LRRC4B protein fragments was assessed using HRP-conjugated anti-FAM19A5 (1-65) antibody. […]

[2] = biological target: binding of FAM19A5 protein to LRRC4B (amino acids 453-576)-hFc (Homo sapiens, UniProt Q7Z5A7); assay: Competitive inhibition assay, plate coated with LRRC4B (amino acids 453-576)-hFc, peptides at 20 nM; details: Table 10; alanine/asparagine mutants
From the text: as §1
Next, to determine the minimal sequence required to inhibit the interaction of FAM19A5 and members of the LRRC4 protein family, ten FB-20 peptide variants were constructed by serially deleting one or more amino acids from the N-terminus or C-terminus of the FB-20 peptide. Then, a competitive inhibition assay was used to assess the ability of the different FB-20 peptide variants to inhibit the interaction between FAM19A5 and LRRC4B protein. Again, plates were coated with 100 nM of either LRRC4B protein fragment #1 (amino acids 36-576 of SEQ ID NO: 2; SEQ ID NO: 5) or LRRC4B protein fragment #2 (amino acids 453-576 of SEQ ID NO: 2; SEQ ID NO: 7). Then, recombinant FAM19A5 protein (5 ng/ml for plates coated with LRRC4B fragment #1; and 1 ng/mL for plates coated with LRRC4B fragment #2) was added to the plates in combination with 20 nM of the different peptides described above. After incubating the plates at 37° C., the amount of FAM19A5 protein bound to the coated LRRC4B protein fragments was assessed using HRP-conjugated anti-FAM19A5 (1-65) antibody.
To identify the critical amino acid residues, multiple FB-20 peptide mutants were constructed, in which the individual residues of the core binding domain (i.e., YTYFTTVTVETLE; SEQ ID NO: 15) were substituted with alanine (A) or asparagine (N). Then, the ability of these FB-20 peptide mutants to inhibit the interaction between LRRC4B and FAM19A5 proteins was assessed, as described in Examples 3 and 4.

Chain of binding of FAM19A5 protein to full-length ectodomain of the LRRC4B protein (amino acids 36-576 of SEQ ID NO: 2) (Q7Z5A7 44-132): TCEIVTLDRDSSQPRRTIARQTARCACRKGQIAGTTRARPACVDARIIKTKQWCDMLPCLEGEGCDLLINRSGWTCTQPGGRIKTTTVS
Chain of binding of FAM19A5 protein to LRRC4B (amino acids 453-576)-hFc (Q7Z5A7 44-132): as above

Sequence | Inhibition rate (%) LRRC4B (amino acids 36-576)-hFc [1] | Inhibition rate (%) LRRC4B (amino acids 453-576)-hFc [2]
GATYFTTVTVETLETQPGEE [FB-20[A1]] | 17.2% | 3.6%
GNTYFTTVTVETLETQPGEE [FB-20[N1]] | 11.9% | 3.1%
GYAYFTTVTVETLETQPGEE [FB-20[A2]] | 1.0% | −0.4%
GYNYFTTVTVETLETQPGEE [FB-20[N2]] | −0.7% | −2.0%
GYTAFTTVTVETLETQPGEE [FB-20[A3]] | 5.9% | 0.0%
GYTNFTTVTVETLETQPGEE [FB-20[N3]] | −5.0% | 4.0%
GYTYATTVTVETLETQPGEE [FB-20[A4]] | 2.7% | 1.5%
GYTYFATVTVETLETQPGEE [FB-20[A5]] | 53.4% | 22.2%
GYTYFNTVTVETLETQPGEE [FB-20[N5]] | 56.1% | 30.5%
GYTYFTAVTVETLETQPGEE [FB-20[A6]] | 17.9% | 11.0%
GYTYFTNVTVETLETQPGEE [FB-20[N6]] | −11.4% | −0.4%
GYTYFTTATVETLETQPGEE [FB-20[A7]] | 26.8% | 7.9%
GYTYFTTNTVETLETQPGEE [FB-20[N7]] | 24.5% | 8.3%
GYTYFTTVAVETLETQPGEE [FB-20[A8]] | 3.9% | −0.4%
GYTYFTTVNVETLETQPGEE [FB-20[N8]] | 2.9% | −2.4%
GYTYFTTVTAETLETQPGEE [FB-20[A9]] | 21.5% | 3.8%
